Molecular target: GST-F2F3 (GST fusion of CPSF30 zinc fingers F2F3, amino acids 61-121) (UniProt P08515 1-218 = GST)

B1: M186 mutant NS1A protein (other)
chain: MDSNTVSSFQVDCFLWHVRKQVVDQELGDAPFLDRLRRDQKSLRGRGSTLGLNIEAATHVGKQIVEKILKEESDEALKMTMASTPASRYITDMTIEELSRDWFMLMPKQKVEGPLCIRIDQAIMDKNIMLKANFSVIFDRLETLILLRAFTEEGAIVGEISPLPSFPGHTIEDVKNAIGVLIGRFLRYDNTVRVSKTLQRFAWGSSNENGRPPLTPKQKRKMARTARSKVRRDKMAD
modifications: 35S-methionine label (in vitro translated)
B1: no binding.

From patent publication US20070160982A1 (University of Texas, published 2007)
